From patent US20230002480A1

What was measured:
Assay in all cases: cell-based or functional assay
[1] = target: HIV-1 Env of pseudovirus RHPA4259.7 (HIV-1)
[2] = target: HIV-1 Env of pseudovirus 231965.c01 (clade D) (HIV-1)
[3] = target: HIV-1 Env of pseudovirus 0815.v3.c3 (clade ACD) (HIV-1)
[4] = target: HIV-1 Env of pseudovirus 3016.v5.c45 (clade D) (HIV-1)
[5] = target: HIV-1 Env of pseudovirus 6811.v7.c18 (clade CD) (HIV-1)
[6] = target: HIV-1 Env of pseudovirus 231966.c02 (clade D) (HIV-1)
[7] = target: HIV-1 Env of pseudovirus ZM53M.PB12 (HIV-1)
[8] = target: HIV-1 Env of pseudovirus P1981_C5_3 (clade G) (HIV-1)
[9] = target: HIV-1 Env of pseudovirus 6540.v4.c1 (clade AC) (HIV-1)
[10] = target: HIV-1 Env of pseudovirus 6952.v1.c20 (clade CD) (HIV-1)
[11] = target: HIV-1 Env of pseudovirus 89-F1_2_25 (clade CD) (HIV-1)
[12] = target: HIV-1 Env of pseudovirus 6480.v4.c25 (clade CD) (HIV-1)
[13] = target: HIV-1 Env of pseudovirus X2131_C1_B5 (clade G) (HIV-1)
[14] = target: HIV-1 Env of pseudovirus A07412M1.vrc12 (clade D) (HIV-1)
[15] = target: HIV-1 Env of pseudovirus Ce1086_B2 (HIV-1)
[16] = target: HIV-1 Env of pseudovirus X1632_S2_B10 (clade G) (HIV-1)
[17] = target: HIV-1 Env of pseudovirus 235-47 (clade CRF02_AG) (HIV-1)
[18] = target: HIV-1 Env of pseudovirus 3301.v1.c24 (clade AC) (HIV-1)
[19] = target: HIV-1 Env of pseudovirus 6545.v4.c1 (clade AC) (HIV-1)
[20] = target: HIV-1 Env of pseudovirus 3103.v3.c10 (clade ACD) (HIV-1)
[21] = target: HIV-1 Env of pseudovirus 3817.v2.c59 (clade CD) (HIV-1)
[22] = target: HIV-1 Env of pseudovirus 6041.v3.c23 (clade AC) (HIV-1)
[23] = target: HIV-1 Env of pseudovirus Q23.17 (HIV-1)
[24] = target: HIV-1 Env of pseudovirus CAP45.2.00.G3 (HIV-1)

Substance 10E8 (antibody) has an IC50, titer in TZM.bl cells [1] of 0.728 µg/mL, an IC80, titer in TZM.bl cells [1] of 5.28 µg/mL and an IC50, titer in TZM.bl cells [2] of over 10 µg/mL. For the same substance, the IC80, titer in TZM.bl cells [2] was over 10 µg/mL, the IC50, titer in TZM.bl cells [3] was 0.332 µg/mL and the IC80, titer in TZM.bl cells [3] was 2.87 µg/mL. For the same substance, the IC50, titer in TZM.bl cells [4] was 0.476 µg/mL, the IC80, titer in TZM.bl cells [4] was 4.39 µg/mL and the IC50, titer in TZM.bl cells [5] was 7.54 µg/mL. It also gave an IC80, titer in TZM.bl cells [5] of over 10 µg/mL, an IC50, titer in TZM.bl cells [6] of 0.191 µg/mL and an IC80, titer in TZM.bl cells [6] of 3.13 µg/mL. For the same substance, the IC50, titer in TZM.bl cells [7] was 3.98 µg/mL, the IC80, titer in TZM.bl cells [7] was over 10 µg/mL and the IC50, titer in TZM.bl cells [8] was 0.057 µg/mL. It also gave an IC80, titer in TZM.bl cells [8] of 0.285 µg/mL, an IC50, titer in TZM.bl cells [9] of 1.9 µg/mL and an IC80, titer in TZM.bl cells [9] of 10 µg/mL. For the same substance, the IC50, titer in TZM.bl cells [10] was 0.343 µg/mL, the IC80, titer in TZM.bl cells [10] was 1.91 µg/mL and the IC50, titer in TZM.bl cells [11] was 1.11 µg/mL. The IC80, titer in TZM.bl cells [11] was 10 µg/mL, the IC50, titer in TZM.bl cells [12] was 8.08 µg/mL and the IC80, titer in TZM.bl cells [12] was over 10 µg/mL. The IC50, titer in TZM.bl cells [13] was 0.189 µg/mL, the IC80, titer in TZM.bl cells [13] was 0.974 µg/mL and the IC50, titer in TZM.bl cells [14] was 0.576 µg/mL. The IC80, titer in TZM.bl cells [14] was 6.05 µg/mL, the IC50, titer in TZM.bl cells [15] was 1.16 µg/mL and the IC80, titer in TZM.bl cells [15] was 6.93 µg/mL. For the same substance, the IC50, titer in TZM.bl cells [16] was 1.98 µg/mL, the IC80, titer in TZM.bl cells [16] was 9.68 µg/mL and the IC50, titer in TZM.bl cells [17] was 0.384 µg/mL. The IC80, titer in TZM.bl cells [17] was 2.07 µg/mL, the IC50, titer in TZM.bl cells [18] was 4.63 µg/mL and the IC80, titer in TZM.bl cells [18] was over 10 µg/mL. It also gave an IC50, titer in TZM.bl cells [19] of 1.78 µg/mL, an IC80, titer in TZM.bl cells [19] of 8.23 µg/mL and an IC50, titer in TZM.bl cells [20] of over 10 µg/mL. The IC80, titer in TZM.bl cells [20] was over 10 µg/mL, the IC50, titer in TZM.bl cells [21] was 1.18 µg/mL and the IC80, titer in TZM.bl cells [21] was 5.98 µg/mL. The IC50, titer in TZM.bl cells [22] was 2.33 µg/mL, the IC80, titer in TZM.bl cells [22] was 9.77 µg/mL and the IC50, titer in TZM.bl cells [23] was 1.64 µg/mL. The IC80, titer in TZM.bl cells [23] was 7.04 µg/mL, the IC50, titer in TZM.bl cells [24] was 1.82 µg/mL and the IC80, titer in TZM.bl cells [24] was over 10 µg/mL.
In the case of PG9 (antibody), the IC50, titer in TZM.bl cells [1] is reported as 22.6 µg/mL, the IC80, titer in TZM.bl cells [1] is reported as over 50 µg/mL and the IC50, titer in TZM.bl cells [2] is reported as 1.28 µg/mL. It also gave an IC80, titer in TZM.bl cells [2] of 48 µg/mL, an IC50, titer in TZM.bl cells [3] of over 50 µg/mL and an IC80, titer in TZM.bl cells [3] of over 50 µg/mL. For the same substance, the IC50, titer in TZM.bl cells [4] was 2.46 µg/mL, the IC80, titer in TZM.bl cells [4] was over 50 µg/mL and the IC50, titer in TZM.bl cells [5] was over 50 µg/mL. It also gave an IC80, titer in TZM.bl cells [5] of over 50 µg/mL, an IC50, titer in TZM.bl cells [6] of 0.075 µg/mL and an IC80, titer in TZM.bl cells [6] of 0.257 µg/mL. It also gave an IC50, titer in TZM.bl cells [7] of 0.069 µg/mL, an IC80, titer in TZM.bl cells [7] of 0.221 µg/mL and an IC50, titer in TZM.bl cells [8] of 0.258 µg/mL. For the same substance, the IC80, titer in TZM.bl cells [8] was 2.51 µg/mL, the IC50, titer in TZM.bl cells [9] was 0.07 µg/mL and the IC80, titer in TZM.bl cells [9] was 0.253 µg/mL. The IC50, titer in TZM.bl cells [10] was over 50 µg/mL, the IC80, titer in TZM.bl cells [10] was over 50 µg/mL and the IC50, titer in TZM.bl cells [11] was 0.668 µg/mL. The IC80, titer in TZM.bl cells [11] was 10.1 µg/mL, the IC50, titer in TZM.bl cells [12] was over 50 µg/mL and the IC80, titer in TZM.bl cells [12] was over 50 µg/mL. The IC50, titer in TZM.bl cells [13] was 0.084 µg/mL, the IC80, titer in TZM.bl cells [13] was 0.286 µg/mL and the IC50, titer in TZM.bl cells [14] was 0.697 µg/mL. The IC80, titer in TZM.bl cells [14] was 7.96 µg/mL, the IC50, titer in TZM.bl cells [15] was over 50 µg/mL and the IC80, titer in TZM.bl cells [15] was over 50 µg/mL. It also gave an IC50, titer in TZM.bl cells [16] of 0.107 µg/mL, an IC80, titer in TZM.bl cells [16] of 0.934 µg/mL and an IC50, titer in TZM.bl cells [17] of 0.233 µg/mL. It also gave an IC80, titer in TZM.bl cells [17] of 1.2 µg/mL, an IC50, titer in TZM.bl cells [18] of 0.216 µg/mL and an IC80, titer in TZM.bl cells [18] of 0.756 µg/mL. For the same substance, the IC50, titer in TZM.bl cells [19] was 0.099 µg/mL, the IC80, titer in TZM.bl cells [19] was 0.351 µg/mL and the IC50, titer in TZM.bl cells [20] was 28 µg/mL. It also gave an IC80, titer in TZM.bl cells [20] of over 50 µg/mL, an IC50, titer in TZM.bl cells [21] of 0.02 µg/mL and an IC80, titer in TZM.bl cells [21] of 0.062 µg/mL. The IC50, titer in TZM.bl cells [22] was 0.244 µg/mL, the IC80, titer in TZM.bl cells [22] was 3.64 µg/mL and the IC50, titer in TZM.bl cells [23] was 0.027 µg/mL. For the same substance, the IC80, titer in TZM.bl cells [23] was 0.082 µg/mL, the IC50, titer in TZM.bl cells [24] was 0.007 µg/mL and the IC80, titer in TZM.bl cells [24] was 0.029 µg/mL.
